Measurements from publication PMC9798946, “Properties and Activity of Peptide Derivatives of ACE2 Cellular Receptor and Their Interaction with SARS-CoV-2 S Protein Receptor-Binding Domain” (Doklady. Biochemistry and Biophysics, 2022).
Like-named read-outs stand apart in the source and are kept apart here.

Assays:
[1] = Degree of α-helicity by circular dichroism (CD) spectroscopy; assay type: physicochemical
[2] = biological target: T1, SARS-CoV-2 S protein RBD RBD (Severe acute respiratory syndrome coronavirus 2), P0DTC2; conditions: modification not given
[3] = biological target: T1, SARS-CoV-2 S protein RBD RBD (Severe …); conditions: modification not given; remark: listed apart in the source
[4] = biological target: T1, SARS-CoV-2 S protein RBD RBD (Severe …); conditions: modification not given; remark: listed apart in the source
[5] = biological target: T1, SARS-CoV-2 S protein RBD RBD (Severe …); conditions: modification not given; remark: listed apart in the source
[6] = biological target: T1, SARS-CoV-2 S protein RBD RBD (Severe …); conditions: modification not given; remark: listed apart in the source

Molecule: CC[C@H](C)[C@H](N)C(=O)N[C@@H](CCC(=O)O)C(=O)N[C@@H](CCC(=O)O)C(=O)N[C@@H](CCC(N)=O)C(=O)N[C@@H](C)C(=O)N[C@@H](CCCCN)C(=O)N[C@H](C(=O)N[C@@H](Cc1ccccc1)C(=O)N[C@@H](CC(C)C)C(=O)N[C@@H](CC(=O)O)C(=O)N[C@@H](CCCCNC(=O)CCS)C(=O)N[C@@H](Cc1ccccc1)C(=O)N[C@@H](CC(N)=O)C(=O)N[C@@H](Cc1c[nH]cn1)C(=O)N[C@@H](CCC(N)=O)C(=O)N[C@@H](C)C(=O)N[C@@H](CCC(=O)O)C(=O)N[C@@H](CC(=O)O)C(=O)N[C@@H](CC(C)C)C(=O)N[C@@H](Cc1ccccc1)C(=O)N[C@@H](Cc1ccc(O)cc1)C(=O)N[C@H](CCCCN)C(=O)O)[C@@H](C)O [h1–Mpa]
- α-Helicity, H2O ([1]; solvent H2O): 6.0%
- α-Helicity, TFE ([1]; solvent trifluoroethanol (TFE)): 85.3%
- α-Helicity, WEM ([1]; solvent water–ethanol mixture (WEM)): 37.8%

Molecule: NCGDKWSAFLKEQSTLAQMYPLQE [900h2 (64-87)]
- Kd [2]: 7220 nM
- Kd [3]: 1700 nM

Molecule: IEEQAKTFLDKFNHQAEDLFYK [h1-Mpa (21-42)]
- Kd [4]: 1070 nM

Molecule: DKWSAFLKEQSTIAQMYPLQECI [h2 (67-89)]
- Kd [5]: 2580 nM
- Kd [6]: 40000 nM
